experiment: soluble on expression in E. coli; label from the status in PepcDB or PDB records

Soluble on expression in E. coli, not soluble:
MGSDKIHHHHHHMPPSFLWISSEVDLKVSSNGDCDHVVFLVDSHFNTCTESNYESFKVSCVAGTNTKDPTEFTKIELGHRPAGSTESPYDNSGFSVEFNGVFENSKQIECVLTRSSINREKRSSISTKKISKTKPKTQLHIFCYRICEIETKIQVISGRSIGSCRCRRNNKIIIPKNADLQILQRESESSHCHYREKNHKKLFHENSLPVMKFSVFNYNTQKW, MGSDKIHHHHHHMPRGPTKKKTEDTTSQSLESKLWATADKLRGHLDAADYKHVVLGLIFLKYISDRFAQRHEEIIREEAGTYAAEDRDEYTAEGVFWVPASSRWAVVQTAAKQPDIGKRIDGAMTDIERENPHLKNILPKGYARPTLDQRRLGELVDLIGTIGLGTAEHQARDTLGRVYEYFLGRFASAEGKRGGEFYTPASVVRTLVTMLAPYKGRIYDPCCGSGGMFVQSEKFIEAHGGKVGDISVYGEESNPNTWKLALMNLAIRGIEADLGPEAADTFHKDLHPDLRADYILANPPFNISDWGGDLLRDDKRWQYGIPPTGNANFAWVQHMVHHLAPYGIAGFVLANGSMSSNTSGEGEIRKNLIEADLVDCMVAMPGQLFYSTQIPVCLWFLAKNRDDGRGMTGKELFERTGEVLFIDARNMGFMADRTHRELTDEDIQKIADTYHNWRGDGDGEYADIPGFCKAASLDDIRKNGHVLTPGRYVGAAAKDDDGEPFEEKMDRLTKELSAQLAEGRRLEDEMLKNFRVLGYEL, MGSDKIHHHHHHMPRYARKRSSTGIYHVMLKGIDGRDIFLDDEDKEKFIENMLKARDKGNFELYAYCLMDNHLHILIKESEGIGTSIKRIAVGYVQWHNNKYGRIGHLFQNRYLSEPVETESYLLTVVKYIHQNPLKARIVTQLADYKWSSYLQYLAAYKGDNSHIDPLLIMEYFKIQTEFESYMNEPTNSECLDYKQSSKYTDEILKNIIRESFGINDLIDMPNDMRNALIKDIYQSTGVSIRQLARVLGIGKSIVERALK, MGSDKIHHHHHHMPSRRGFLAGLLASSVTPTATWADVGAPAYLSAGKDALGLFVMAGLSAAGEVLFRHPLPDRGHAASAHPTRPEAVAFARRPGRFADVIDCRSGAQLARLEPPEGHHFYGHGVFSPEGEVLYTTENDYARGAGVIGVWNAGDYHRIGQFSSGGIGPHEMLLRRDAPGLVVANGGIETHPESGRAKLNIPFMRPNLSYLRLSGEIQHQMELPADLHKNSIRHIAVRSDGAVGFAMQWQGDLGADVPIVGLHQPGSAPRLMAEDDPRLRNLNGYGGSIAFSGDETAIAVTSPRGGVVQVMDCTSGALQAEHALSDVCGLAPLKDGFLVSTGTGIMAQIGTEVTTLTQAPLAWDNHLIALSSAASAPRQP, MGSDKIHHHHHHMPTAAAQENIRWEECPPQVDIASAQCGSIDVPMHYSDPSLGDISVGFVKVPAQGEKHGTIFGNSGGPGGDAYSFFGSQSMNWPEAMYQNYDLVAVQPRGMVGSTPVNCDNIAPGYDFLSLLTREGAFVKESCEIGTPGYTSSLTTDNTANDWERVRQALGDDKISIFGLSYGTYLGSVYATRYPQHTDKVVLDSAMAPSLAWNGIMASQEQGYKNSLNDFFTWVAENNDTYGLGTTPLAVYQNWSNKIVAETGTNPTVAPPPAQVGDVPPAFAWAGQAGADMMTATNPTSVQLQGLATQLLNPGSNQSLSPLLNVTRAYIPQPSTWPMLAGAISGQTPIPDVTDTGDDPYVIESINASVNMQRMVMCNENTVAPDPVAMARMAWTSMVTGDVFDIYSVKFSSGQACSGITPTSGRQPTDGSQLAVQPLLLQGTSDPQTPYWTHNELADAMNAHVVTVNGPGHGQSIGGTNQAINDIVVDYLRTGHTDATWVEGNTPTPITAG, MGSDKIHHHHHHMPTDHSFQIKPSQAAPLTSQQLYRKCDLKELSTDCQSTAELTPLDDIVGQERAQQAVEFAMGIKEKGYNIYAIGQNGLGKRTMMLRYLNRHEPSEHSLYDWCYVVNFDDTRSPKVLKLAAGSGLEFKKAIEKLMLKLVKALPLAFDNEMYYARAEKLKSQLAQKQEAALTELSEEAKQKGISLSLTLQGDYQMIALNGEEPHDEYSFTALTETERNQFESNINGLEVKLRNIIRQNTEWEEEFSDTQQEHDEQVAKDVLIHFFKPLKDKYKHQPEVRAFLTGMQADILDNLDIFLEESEEQLALAYASLEKKMPRRYQVNVLVCQGAQKFPIVVEESPSYHSLFGYVENATFRGTVFTDFSLIRSGSLHKANGGVLLMDAVKVLERPYVWDGLKRALRSRKLDLSSLEREVSLSGTISLAPEPIPLDVKIILFGDHETYQLYNTMIQILVNYLELPLILKM, MGSDKIHHHHHHMPTLTINQRLDALLPKLQDARLLSNRGIGNEIGFYIFDYDAEYEPLVQRYVDRLKLQLTSSPSGFASPSLSEQQDRAGSPIQLILLEIDLYKTILDILSERGVLKKAFELEATKGNAALAKTVAPLVRPDQVIAYIQKKLRGDEQLVIMTGVGASWPLLRSHSILNNLHPVLDKIPLVMFFPGSYDGHELRLFDTFKDDNYYRAFPLIPHQQHHL, MGSDKIHHHHHHMPTNVTAEYLAAEEEYRNAKTIPEKIRALEKMYALVPKHKGTEKLRLQIKRKLAELRKELEKQRQQRKGGGYSLAVKKEGAAQIVLVGLPNVGKSELLKALTGVDVESADYPFTTTEPVPAMLNYKDVQIQLVEVPGLIEGAALGKGMGPQLLAVVRNADAIAIVVDLSEDPVRQMNILLQEFERAGIKVNKKKPKVEIRKTPSGGIVINGIENIKGDIDEVMKMLREEKIHSAEITVMEPVTLEEFADALDDSLVWKKAIIIANKGDAPGSRANYEKLVKAFGERFKIIPVSAKKRINLEAVKEAIYEIADIIRVFTKSPGEEPAYPPIALRKGATVQDVAERIHKDLVKNFKYARVWGKSVKFPGQRVGLDHVLEDGDIVEIHAR, MGSDKIHHHHHHMPTPIKIGVSSCLLGEKVRYDGGHKHDRYITDTLGRFFEFVSVCPEAECGMPIPREAMRLEADGGEVRLVTSRSRVDKTEQMLDFCRRKVLELESEDLCGFIFKKDSPSSGLFNVKLYRRGMPTKAGRGLFADAVTKHFPLLPVEEEGRLHDMGLREHFIERVFAFRRWKDLLLGGKSLGRLVAFHADHKLLIMAHSPEVYREMGALVARGKELGCDDLFACYQELFMKALSLHATVRKNTNVLQHIAGYFKKQLTREEKAELQEVIGEYHRHLVPLIVPVTLLRHYVKKYGQEYLLKQVYLSPTPLELMLRNHV, MGSDKIHHHHHHMPTTASVLIRDSAPREATSPPFLDIRDVHKRFAGVKALRGVSLAIERGQIYHLLGENGCGKSTLIKIISGAQPPDEGTLVVEGREVAGLSPIMALAAGIETVYQDLSLLPNLSVAENIALSQQLVASGGQLARRLDLARLKATATRALEAVNLPAGDGFLATRVDELPIATRQLIAIARVIATDAKLVIMDEPTTALTKREVDNLIAVVEKLRAKGVAVLFVTHKLDECRTIGGRAIILRDGRKVMEGDIADFTKKDLSHWMTGRALDDSRYREAERGGERLLDVRDLGRANAFGGVSFSLNRGEILGVTGLLDSGRNELALALAGVCPADRGGVSLAGERVVLSQPADAIAAGIGYLPEDRLSEGLFLEKPIADNIIASVLDRLRGRLGMLDRPLSRSRAQEMTDDLQIATPDIANPVQSLSGGNQQRVLIGRWLMIEPRLLVLHGPTVGVDVGSKDTIFRIIQRLAKGGMAVIIISDDLPELLQNCDRILVMRKGRVAEVFDAEGLGEGALYRALVAEESPRSLP, MGSDKIHHHHHHMPYTIPNNSCVGCDNCRPQCPTGAIKIEDNEYWVDPGLCNNCEGYYSEPQCVIACPTKSPIPWQAKKGRCKVEPRDSTSLDLFSNGKNNPFASAIAIWEACNVLGQRTSLHWETDEDGYLCYSRQVNQGKGAIAFHIQDPFQVNDKATDIAAIEALDIRAACIHLIFAGYATALEQPWEQEFAIDERQIEKYLGMEKRKDLSKAAKLALMKNLVQQACSLIISIDWPQQGRINGFSVTNSRLWHLVDIQHHFQEDNHGCKYLIGLTFKVKAGLWAQYFLNKQACKERTAFYQYGSLPKTLLTTVMSIWQQHEGAVRLMLWLLFKTKMGKEQRITIPTLLRIAYGEEKVALASRQREERKRLLRTFESDLEILNHYGMKPLFDPVTYPPEIQPLWAKLIDLPEDPDEALEFWTNDGGSETRLTDTGPRGKWNLLMNARILAFELPPEWEQQISESEKKKTRTAKAKKKTKATNDLLGEQILQARKNLNLSQRELAKLTGKSQSWIRDIENGRLKAKLEDQLLLRKVLNMASS, MGSDKIHHHHHHMQASFMRMTDKRSPGKPLHPHGVLRPLVFKGRGALSNHDGRFDHLQHADIDDGWHNLDQDLAPLPTEVLIDNSRSIINWNNSPDVPFDRSINPYRGCEHGCIYCFARPTHTYLGLSAGLDFESRILVKPDAARLLRQELSKQHYRCAPIAMGTNTDPYQPLEKQHQLTRQILQVLAEFRHPVSIVTKAAMVERDIDILAPMASQGLVQVFISITTLSNQVSRTLEPRAAAPQRRLDTIRRLHQAGIPTGVMTAPVIPVLTDPELEHILAAASEAGASSAGYVLLRLPLEVAPLFEEWLQHHYPLKASHVMSIIRQSRDGKTNHTDFHARMRGNGLFAEMIRQRFRLACRKLGLNQRSMEMDTSLFRPPGKPEQLGLF, MGSDKIHHHHHHMQDSPVVLKVSHVAKSFRLPTEQATGLKMAFLNWTKGIKGYTEQKVLRDIDFEVHRGDFFGVVGRNGSGKSTLLKIISQIYVPDQGSVDVYGKLVPFIELGVGFNPELTGRENVYLNGALLGFSHSEIDAMYDDIVEFAELEEFMDQKLKNYSSGMQVRLAFSVAIKAQGDILVLDEVLAVGDEAFQRKCDAFFKKVQADPNKTVILVTHSMDAVKKYCNKAILIRDGEIVVSGDKNQVADQYTLDNLKGNEPLPEKKKQNGEYAIGLNATVPELKIVPKSDLSTDGKHPFQFDVVYEYKDSGTHYVAVNLLDLKRGGIVYDSGSRTLVQTSSGKHRFALEMPIDMLNSGVYRLYASVRVDDGDSADSETKMVAFTNEANGCVFSINNPDHEDYALLNEKAMIIRKRK, MGSDKIHHHHHHMQFVFDIDGTICFDRFQIDARIKAILKDAANYGHQISFASARSYRDCIDVLGQELSQKTVIGLNGGLAYKAGELILEKPMNHRAFDLALYYCHRYQLPYFVDDDFNYAHHLEQFIPFIHSVDPLKLAKEVGVEDLKHPIKMVVFFGNHLDKIAEVSHHLAKLEQLDITFHDDESCLYLNPKEVTKSSTIQELFDHDFVAFGNDRNDIAMFQAAVYSVQVGDFADLSPFADTQVLLRQDYHQAVADKIHETFEKFRA, MGSDKIHHHHHHMQIKLSTDGCTDFMFILENTVNHGIIMQPYHSYFVGPMDICSALITLSGTINTFGVRFRPCGLSRFMKISLSELTNIRLSVNDLNTIFSDSFAERLFEEQGIQCKINLIERYLKKHLYKSNHTMDTQISYAVNQINAHEGKISISHLMDEVNLCQRHFERKFKLHTGFTPQKYNSIVKFKNAIKILRNESFDNLLSVAVKAGYYDASHLSREVKKLSGSTPNFFLSLPPDNETTIIYTK, MGSDKIHHHHHHMQITLNIEHIRADTPLPPLFRVRQRWQTSPIADVAAVVYAELDKIGLAGHIQPGMRIAVTAGSRGISNIVTITAAAVAWLRAHGAEPFIVPAMGSHGGATAEGQVALLASLGITEQSVGCPIRATMDVVELGRIADGTPVYMDRFAAEADGVLVINRIKTHTSFKAPIESGLAKMCAVGLGKRQGAEIVHRTAVYGLKEQLVPMARMVVERGRVLAGLAILEDARDQTAAIVALPPAEIGGAGEAELLLRSKEMMARLPFDRLDVLVVDRIGKNISGTGMDTNVIGRLPIPGEPPPDRPVINVIVVLDLTPETHGNANGIGLADITTARLAAKIDFHATYVNVLTAGLVGLCKGGLPITLPTERDAVAMAIKTCGQPDLAAVRLVRIPDTLHLEELLVSEALLPEVTAHPNLELLGPAEWVLDCVEG
